pKd: −log10 of the molar value.

Common to all, as to assay: SPR Biacore 8k+ 25C, antibody captured, FcγR analyte; mean
For orientation: In SPR one partner is held on a chip, and binding of the other changes the refractive index at the surface.

Assay [1] deals with cynomolgus monkey FcγRIIIa(R) extracellular domain with His tag (cynomolgus monkey) (UniProt Q8SPW2).
The target of assay [2] is cynomolgus monkey FcγRIIIa(S) extracellular domain with His tag (cynomolgus monkey) (UniProt Q8SPW2).
In assay [3] the target is cynomolgus monkey FcγRIIa1 extracellular domain with His tag (cynomolgus monkey).
Assay [4] deals with cynomolgus monkey FcγRIIa2 extracellular domain with His tag (cynomolgus monkey).
In assay [5] the target is cynomolgus monkey FcγRIIa3 extracellular domain with His tag (cynomolgus monkey).
Assay [6] concerns the target cynomolgus monkey FcγRIIb extracellular domain with His tag (cynomolgus monkey).
The target in assay [7] is cynomolgus monkey FcγRIa extracellular domain with His tag (cynomolgus monkey).
For assay [8], the target named is human FcγRIIIa(F) extracellular domain with C-terminal His tag (human) (UniProt P08637).
Assay [9] concerns the target human FcγRIIIa(V) extracellular domain with C-terminal His tag (human) (UniProt P08637).
Assay [10] concerns the target human FcγRIIa(H) extracellular domain with C-terminal His tag (human) (UniProt P12318).
The target in assay [11] is human FcγRIIa(R) extracellular domain with C-terminal His tag (human) (UniProt P12318).
In assay [12] the target is human FcγRIIb extracellular domain with C-terminal His tag (human) (UniProt P31994).
The target in assay [13] is human FcγRIa extracellular domain with C-terminal His tag (human) (UniProt P12314).
Sequence of human FcγRIa extracellular domain with C-terminal His tag (human) (P12314 other isoform, or with tags, fused parts or gaps): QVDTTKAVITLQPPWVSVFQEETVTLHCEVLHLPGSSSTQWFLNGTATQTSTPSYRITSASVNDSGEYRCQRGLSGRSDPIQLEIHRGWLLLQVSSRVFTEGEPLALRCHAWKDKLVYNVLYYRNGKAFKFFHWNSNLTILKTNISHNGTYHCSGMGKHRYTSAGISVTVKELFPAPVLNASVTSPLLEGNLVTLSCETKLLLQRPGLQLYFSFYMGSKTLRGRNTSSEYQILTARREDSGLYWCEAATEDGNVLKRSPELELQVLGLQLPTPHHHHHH

Sequence of cynomolgus monkey FcγRIIa1 extracellular domain with His tag (cynomolgus monkey) (chain, as listed by the source): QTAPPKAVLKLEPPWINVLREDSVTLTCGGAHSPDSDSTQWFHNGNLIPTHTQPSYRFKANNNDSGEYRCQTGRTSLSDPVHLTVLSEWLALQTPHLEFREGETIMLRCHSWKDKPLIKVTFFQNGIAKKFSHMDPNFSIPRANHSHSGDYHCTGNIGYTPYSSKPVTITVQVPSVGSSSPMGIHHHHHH
Sequence of human FcγRIIIa(F) extracellular domain with C-terminal His tag (human) (P08637 other isoform, or with tags, fused parts or gaps): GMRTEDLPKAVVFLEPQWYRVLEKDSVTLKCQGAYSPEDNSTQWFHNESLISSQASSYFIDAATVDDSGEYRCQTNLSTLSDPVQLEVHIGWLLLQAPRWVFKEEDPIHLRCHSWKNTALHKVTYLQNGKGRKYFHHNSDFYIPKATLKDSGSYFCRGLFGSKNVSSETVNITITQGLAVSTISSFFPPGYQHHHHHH
Sequence of cynomolgus monkey FcγRIa extracellular domain with His tag (cynomolgus monkey) (P12314 other isoform, or with tags, fused parts or gaps): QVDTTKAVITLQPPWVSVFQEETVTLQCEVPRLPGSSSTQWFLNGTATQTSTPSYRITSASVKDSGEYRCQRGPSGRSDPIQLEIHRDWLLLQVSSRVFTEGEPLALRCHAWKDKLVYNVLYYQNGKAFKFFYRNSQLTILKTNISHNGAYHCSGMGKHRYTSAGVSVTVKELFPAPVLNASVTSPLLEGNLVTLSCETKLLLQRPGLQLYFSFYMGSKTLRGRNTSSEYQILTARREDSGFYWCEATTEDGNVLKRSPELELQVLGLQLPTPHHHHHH
Sequence of human FcγRIIIa(V) extracellular domain with C-terminal His tag (human) (P08637 other isoform, or with tags, fused parts or gaps): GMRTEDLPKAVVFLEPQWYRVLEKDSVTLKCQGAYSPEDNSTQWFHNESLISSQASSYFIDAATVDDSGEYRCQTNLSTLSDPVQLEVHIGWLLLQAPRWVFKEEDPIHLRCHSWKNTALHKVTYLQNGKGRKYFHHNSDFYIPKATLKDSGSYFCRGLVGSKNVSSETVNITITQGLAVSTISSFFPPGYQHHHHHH
Sequence of cynomolgus monkey FcγRIIb extracellular domain with His tag (cynomolgus monkey) (chain, as listed by the source): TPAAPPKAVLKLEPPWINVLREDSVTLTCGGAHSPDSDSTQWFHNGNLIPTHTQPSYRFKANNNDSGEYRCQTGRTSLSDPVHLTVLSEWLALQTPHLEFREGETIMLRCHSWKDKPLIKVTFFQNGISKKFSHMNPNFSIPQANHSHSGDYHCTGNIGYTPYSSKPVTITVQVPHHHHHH
Sequence of human FcγRIIa(H) extracellular domain with C-terminal His tag (human) (P12318 34-217): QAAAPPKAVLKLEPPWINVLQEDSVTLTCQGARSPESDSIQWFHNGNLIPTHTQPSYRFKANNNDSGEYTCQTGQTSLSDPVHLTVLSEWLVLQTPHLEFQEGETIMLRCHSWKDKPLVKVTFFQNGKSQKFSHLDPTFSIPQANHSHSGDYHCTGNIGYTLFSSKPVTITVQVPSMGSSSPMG
Sequence of cynomolgus monkey FcγRIIIa(R) extracellular domain with His tag (cynomolgus monkey) (Q8SPW2 other isoform, or with tags, fused parts or gaps): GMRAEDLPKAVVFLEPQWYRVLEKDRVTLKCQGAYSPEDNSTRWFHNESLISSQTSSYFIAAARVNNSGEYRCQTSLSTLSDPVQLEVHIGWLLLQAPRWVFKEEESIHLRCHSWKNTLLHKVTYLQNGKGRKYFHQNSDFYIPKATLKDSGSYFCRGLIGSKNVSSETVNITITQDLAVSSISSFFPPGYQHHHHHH
Sequence of human FcγRIIb extracellular domain with C-terminal His tag (human) (P31994 other isoform, or with tags, fused parts or gaps): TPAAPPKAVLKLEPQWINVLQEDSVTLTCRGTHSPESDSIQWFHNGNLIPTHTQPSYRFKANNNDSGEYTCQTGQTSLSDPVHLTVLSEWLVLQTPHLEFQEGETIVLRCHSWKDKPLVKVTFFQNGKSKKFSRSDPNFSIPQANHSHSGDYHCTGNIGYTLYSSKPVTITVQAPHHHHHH
Sequence of cynomolgus monkey FcγRIIIa(S) extracellular domain with His tag (cynomolgus monkey) (Q8SPW2 other isoform, or with tags, fused parts or gaps): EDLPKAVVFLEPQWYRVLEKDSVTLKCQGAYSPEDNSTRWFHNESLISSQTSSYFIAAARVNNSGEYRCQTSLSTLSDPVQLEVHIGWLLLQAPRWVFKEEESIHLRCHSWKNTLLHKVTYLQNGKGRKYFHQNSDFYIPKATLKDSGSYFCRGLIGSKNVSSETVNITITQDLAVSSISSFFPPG
Sequence of cynomolgus monkey FcγRIIa2 extracellular domain with His tag (cynomolgus monkey) (chain, as listed by the source): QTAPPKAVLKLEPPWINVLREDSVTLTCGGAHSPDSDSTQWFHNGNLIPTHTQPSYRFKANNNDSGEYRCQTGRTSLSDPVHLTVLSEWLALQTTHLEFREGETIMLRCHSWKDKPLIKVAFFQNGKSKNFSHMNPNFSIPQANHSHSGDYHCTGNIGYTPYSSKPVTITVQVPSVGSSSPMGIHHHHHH
Sequence of human FcγRIIa(R) extracellular domain with C-terminal His tag (human) (P12318 34-217 H167R): as the sequence (P12318 34-217) above, with H134R counted along it
Sequence of cynomolgus monkey FcγRIIa3 extracellular domain with His tag (cynomolgus monkey) (chain, as listed by the source): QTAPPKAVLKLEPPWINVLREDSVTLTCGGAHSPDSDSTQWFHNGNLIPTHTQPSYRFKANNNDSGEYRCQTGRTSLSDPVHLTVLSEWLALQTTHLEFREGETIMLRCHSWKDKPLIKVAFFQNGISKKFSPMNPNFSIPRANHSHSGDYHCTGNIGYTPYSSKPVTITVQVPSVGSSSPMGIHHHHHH

One may read the pKd as the Kd on a negative log10 scale, so that one unit is a factor of ten. In the case of “Tremfya (Janssen Pharmaceutical K.K) (antibody)”, the pKd in assay [1] is 6.24; in assay [2], 6.30; in assay [3] it was 5.17; in assay [4], 5.12; in [5], 4.40; in assay [6], 5.25. Further, the pKd was 10.96 in assay [7]; 5.04 in assay [8]; 5.99 in assay [9]; 5.90 in assay [10]; 5.73 in [11]; 4.78 in [12]. The same substance gave a pKd in [13] of 10.04.

These data come from patent US20260022175A1.
